{"source": "IntAct's records for PubMed 21840486", "parents": {"B1": {"name": "Protein PML (Homo sapiens), P29590-1 (parent)", "chain": "MEPAPARSPRPQQDPARPQEPTMPPPETPSEGRQPSPSPSPTERAPASEEEFQFLRCQQCQAEAKCPKLLPCLHTLCSGCLEASGMQCPICQAPWPLGADTPALDNVFFESLQRRLSVYRQIVDAQAVCTRCKESADFWCFECEQLLCAKCFEAHQWFLKHEARPLAELRNQSVREFLDGTRKTNNIFCSNPNHRTPTLTSIYCRGCSKPLCCSCALLDSSHSELKCDISAEIQQRQEELDAMTQALQEQDSAFGAVHAQMHAAVGQLGRARAETEELIRERVRQVVAHVRAQERELLEAVDARYQRDYEEMASRLGRLDAVLQRIRTGSALVQRMKCYASDQEVLDMHGFLRQALCRLRQEEPQSLQAAVRTDGFDEFKVRLQDLSSCITQGKDAAVSKKASPEAASTPRDPIDVDLPEEAERVKAQVQALGLAEAQPMAVVQSVPGAHPVPVYAFSIKGPSYGEDVSNTTTAQKRKCSQTQCPRKVIKMESEEGKEARLARSSPEQPRPSTSKAVSPPHLDGPPSPRSPVIGSEVFLPNSNHVASGAGEAEERVVVISSSEDSDAENSSSRELDDSSSESSDLQLEGPSTLRVLDENLADPQAEDRPLVFFDLKIDNETQKISQLAAVNRESKFRVVIQPEAFFSIYSKAVSLEVGLQHFLSFLSSMRRPILACYKLWGPGLPNFFRALEDINRLWEFQEAISGFLAALPLIRERVPGASSFKLKNLAQTYLARNMSERSAMAAVLAMRDLCRLLEVSPGPQLAQHVYPFSSLQCFASLQPLVQAAVLPRAEARLLALHNVSFMELLSAHRRDRQGGLKKYSRYLSLQTTTLPPAQPAFNLQALGTYFEGLLEGPALARAEGVSTPLAGRGLAERASQQS", "partner": "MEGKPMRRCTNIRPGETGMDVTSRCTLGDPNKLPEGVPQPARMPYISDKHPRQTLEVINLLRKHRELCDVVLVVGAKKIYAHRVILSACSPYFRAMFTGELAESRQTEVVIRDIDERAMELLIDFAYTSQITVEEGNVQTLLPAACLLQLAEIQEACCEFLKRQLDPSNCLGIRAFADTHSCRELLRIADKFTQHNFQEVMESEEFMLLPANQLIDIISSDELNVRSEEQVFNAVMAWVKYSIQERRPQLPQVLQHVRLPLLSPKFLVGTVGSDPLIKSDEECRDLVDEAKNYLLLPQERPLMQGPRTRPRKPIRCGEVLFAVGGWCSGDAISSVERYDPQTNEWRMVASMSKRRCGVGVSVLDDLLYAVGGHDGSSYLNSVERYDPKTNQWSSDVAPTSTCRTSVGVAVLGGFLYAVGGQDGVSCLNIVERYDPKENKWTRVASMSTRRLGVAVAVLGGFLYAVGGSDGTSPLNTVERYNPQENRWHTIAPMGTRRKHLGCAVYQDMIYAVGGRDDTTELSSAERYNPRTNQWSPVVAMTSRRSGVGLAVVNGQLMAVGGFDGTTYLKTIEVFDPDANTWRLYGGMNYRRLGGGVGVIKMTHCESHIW"}}}
{"variants_of": "B1", "conditions": "with klh20_human KLHL20, Q9Y2M5"}
{"variant": "S518A", "effect of a mutation on the interaction": "disrupting interaction"}
{"variants_of": "B1", "conditions": "with klh20_human KLHL20, Q9Y2M5", "remark": "another data set of the same source"}
{"variant": "S518A", "effect of a mutation on the interaction": "disrupting interaction"}
